Measurements from article PMC9307593.

B1: recombinant wild-type NUPR1 (natural protein)
chain: MATFPPATSAPQQPPGPEDEDSSLDESDLYSLAHSYLGGGGRKGRTKREAAANTNRPSPGGHERKLVTKLQNSERKKRGARR
B2: NUPR1 (detected with the anti-NUPR1 antibody in MiaPaCa-2 cells) (natural protein)
chain: B1 chain

Key:
[1] = molecular target: recombinant PARP1
[2] = molecular target: PARP1-Flag; assay: proximity ligation; MiaPaCa-2 cells transfected with PARP1-Flag; mouse anti-Flag and rabbit anti-NUPR1 antibodies; untreated or 24 h with ZZW-115 1.5 uM, 5-FU 10 uM, olaparib 25 uM or 5-FU + olaparib; foci counted with ImageJ

Row | Binder | inhibition of PARP1 enzymatic activity in an acellular PARP1 activity assay with 2 and 4 µM rNUPR1 (26.5% at 2 µM, 48.4% at 4 µM) [1] [%] | PLA foci/cell (cells treated with 5-FU) [2] [foci/cell] | PLA foci/cell (cells treated with ZZW-115) [2] [foci/cell] | PLA foci/cell (control condition) [2] [foci/cell]
1 | B1 | 48.4 | – | – | –
2 | B2 | – | 94.7 | 12.5 | 59.5
